The target of assay [1] is human FDP (fibrin-fibrinogen degradation products) (human) (UniProt P02671). Briefly: affinity test (RU read-out; instrument not named).
Assay [2] shares this target. Briefly: kinetic analysis, 1:1 binding fit (RU read-out; instrument not named).
Assay [3] shares this target. Briefly: comparison drawn from Tables 3 and 4 (kinetic analysis and affinity test).

In general, Kd refers to the free concentration of one partner at which half of the binding sites on the other are occupied at equilibrium, for simple one-to-one binding. For orientation: koff means the rate constant with which the complex falls apart. Broadly, the kon is the second-order rate constant of association.

B1: mAb 14G12-5 (antibody, V domains shown)
VH: EVQLVESGGGLVKPGGSLKLSCAASGFAFNAYDMSWVRQTPEKRLEWVAYISSSGDYTYYPDTVKGRFTVSRDNAKSTLYLHMGSLKSEDTAMYYCAVYYHYDEGLDYWGQGTALTVSS
VL: QIVLIQSPAIMSASPGEKVTMTCSASSSVNYMHWYQQKSGTSPKRWIYDTSKLASGVPARFSGSGSGTSYSLTISSMEAEDAATYYCQQWSSNPPTFGGGTKLEIKR
In the case of B1, the Kd in assay [1] was 0.157 µM. Moreover, in assay [2], the Kd was found to be 0.0165 µM, the off-rate constant (koff) amounted to 0.00225 s⁻¹ and the kon worked out at 136000 M⁻¹ s⁻¹. The molecule further showed a fold binding capacity against canine FDP in assay [3] of 10 fold.

Source of the values: patent publication US20250163137A1.
